# Source: patent US8734803 (IBIO, dated 2014)
# Experiments:
# Assay in all cases: cell-based or functional assay
# [1] = biological target: T1, neuraminidase of influenza A/Vietnam/1203/04 (H5N1, clade 1) on live virus (influenza A/Vietnam/1203/04 (H5N1), UniProt Q6DPL2 1-449)
# [2] = biological target: T1, neuraminidase of influenza …; remark: listed apart in the source
# [3] = biological target: NA (neuraminidase) used in the NA activity inhibition experiments of Example 9
# T1 sequence (Q6DPL2 whole entry): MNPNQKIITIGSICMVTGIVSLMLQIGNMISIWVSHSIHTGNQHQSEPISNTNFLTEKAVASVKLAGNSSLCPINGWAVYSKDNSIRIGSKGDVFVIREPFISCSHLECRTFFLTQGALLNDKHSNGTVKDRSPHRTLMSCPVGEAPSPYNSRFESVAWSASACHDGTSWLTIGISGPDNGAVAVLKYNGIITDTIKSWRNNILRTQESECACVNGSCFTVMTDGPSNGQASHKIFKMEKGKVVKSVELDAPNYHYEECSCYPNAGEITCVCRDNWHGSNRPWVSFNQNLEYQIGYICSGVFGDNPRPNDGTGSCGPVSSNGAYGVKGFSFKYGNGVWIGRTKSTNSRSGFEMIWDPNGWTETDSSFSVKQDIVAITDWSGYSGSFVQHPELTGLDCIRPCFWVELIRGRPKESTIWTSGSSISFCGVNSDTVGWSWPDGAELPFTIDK
binder,measurement,setting,value
"2B9 anti-N1 neuraminidase monoclonal antibody (antibody, V domains shown) VH: QVQLQQSGAELVRPGTSVKMSCKAAGYTFTNYWIGWVKQRPGHGLEWIGDIYPENDFSNYNEKFKDKATLTADTSSRTAYMQLSSLTSEDSAIYYCVRANEGWYLDVWGTGTTVSVSS VL: DIQMTQSPASLSESVGETVTITCRASENIYSYLAWYQQKQGKSPQLLVYFAKTLAEGVPSTFSGSGSGTLFSLKINSLQPEDFGNYYCQHHYGTPYTFGGGTKLEIKR",NA assay IC50 (Antibody IC50),[1],< 1 µg/mL
same,IC50 of 2B9 against various influenza strains (NA inhibition),[2],≤ 1 µg/mL
same,"IC50, inhibition of NA activity",[3],0.82 µg/mL
